The numbers were not newly measured in article PMC10454195, which cites them from elsewhere.

The Kd is the concentration at which binding is half-saturated.

The series addresses GLP-1 receptor (Homo sapiens) (UniProt P43220).
Sequence of UniProt P43220 (P43220 24-463): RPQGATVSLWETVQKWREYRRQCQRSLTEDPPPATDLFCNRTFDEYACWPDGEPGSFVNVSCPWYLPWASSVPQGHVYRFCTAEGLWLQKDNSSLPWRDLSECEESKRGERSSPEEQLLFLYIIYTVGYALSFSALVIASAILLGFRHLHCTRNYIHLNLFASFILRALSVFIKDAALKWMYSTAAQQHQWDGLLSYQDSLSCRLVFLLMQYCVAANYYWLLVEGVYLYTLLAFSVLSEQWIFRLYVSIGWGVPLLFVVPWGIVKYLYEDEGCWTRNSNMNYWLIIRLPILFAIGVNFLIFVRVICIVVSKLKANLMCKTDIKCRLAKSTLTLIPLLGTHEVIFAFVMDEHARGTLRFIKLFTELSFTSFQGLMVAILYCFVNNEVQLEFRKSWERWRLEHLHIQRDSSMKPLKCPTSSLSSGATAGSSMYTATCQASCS

Sequence of GLP-1 (P01275 98-127): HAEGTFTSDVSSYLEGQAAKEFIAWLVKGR

Consider GLP-1 (from UniProt P01275), for which the Kd is 5 nM.
